Consider 1 molecule from paper PMC12700824 (2025).

Usually Kd stands for the equilibrium constant for the complex coming apart. Higher therefore signals lower affinity.

This assay concerns the target FAM118B24–334-F122R (human, UniProt Q9BPY3 24-334, F122R). Description: ITC. On the technique in general: ITC needs no label: the signal is the heat of the interaction.

B1: FAM118B24–334-L32R (domain or fragment)
chain: PTKKPRKLRPSLKTKKPRELVLVIGTGISAAVAPQVPALKSWKGLIQALLDAAIDFDLLEDEESKKFQKCLHEDKNLVHVAHDLIQKLSPRTSNVRSTFFKDCLYEVFDDLESKMEDSGKQLLQSVLHLMENGALVLTTNFDNLLELYAADQGKQLESLDLTDEKKVLEWAQEKRKLSVLHIHGVYTNPSGIVLHPAGYQNVLRNTEVMREIQKLYENKSFLFLGCGWTVDDTTFQALFLEAVKHKSDLEHFMLVRRGDVDEFKKLRENMLDKGIKVISYGDDYADLPEYFKRLTCEISTRGTSAGMVREG
Take B1: the dissociation constant (Kd) amounted to 233 nM. This counts as sub-micromolar.
